The values below come from US20200157537, “Modulating RNA Interactions with Polycomb Repressive Complex 1 (PRC1)” (The General Hospital Corporation, published 2020).

Data set [1] concerns the target T1, CBX7 (Mus musculus, UniProt Q8VDS3 Q8VDS3:1-158). The experiment in a line: EMSA; low micromolar range, value only in figure; positive cooperativity; yeast tRNA, Mg2+, on ice. The settings on record: tags: C-terminal Flag-HA; baculovirus Sf9, anti-FLAG M2 purified; label: radiolabelled. On the procedure:
(§1) RNA-EMSA assays with CBX7 protein were performed as follows. Labeled RNAs were produced with MEGAscript® T7 Transcription Kit (Life Technologies) and purified from 6% acrylamide TBE-urea gels. Labeled RNAs were prefolded in buffer TE+300 mM NaCl by incubating for 2 min at 95° C., followed by 20 min incubation on ice. Binding reactions were assembled with 20 μl of binding mix (13 mM Tris pH 8.0, 0.2 mM EDTA, 68.8 mM NaCl, 20% Glycerol, 0.2 mg/ml Yeast tRNA, 4 mM DTT, 4 μl 2500 cpm/μl RNA probe). LNA oligonucleotides were added to binding mix at final concentration of 8 μM and samples were pre-incubated on ice for 10 min. After pre-incubation, binding mix samples were combined with 60 μl of purified protein in dialysis buffer (50 mM Tris pH 7.4, 5 mM MgCl₂, 50 mM NaCl, 1 mM DTT, 10% Glycerol, 4 u/μl Protector RNAse inhibitor (Roche)). Control experiments were performed with dialysis buffer only or control proteins—Flag-GFP or GST-Flag-HA, dissolved in dialysis buffer at the highest protein concentration in the particular experiment. After 30 min on ice, the sample was loaded onto a 5% 37:1 acrylamide (Bio-Rad) gel in 0.5× TBE buffer (45 mM Tris-Borate, 1 mM disodium EDTA) and run for 90 min at 250 V at 4° C. Gels were exposed to phosphorimager screens. […]

The target of another data set is GFP (control protein) (UniProt P42212 P42212:1-238). The experiment in a line: EMSA; control protein. The settings on record: tags: Flag; label: radiolabelled. On the procedure: RNA-EMSA assays with CBX7 protein were performed as follows. Labeled RNAs were produced with MEGAscript® T7 Transcription Kit (Life Technologies) and purified from 6% acrylamide TBE-urea gels. Labeled RNAs were prefolded in buffer TE+300 mM NaCl by incubating for 2 min at 95° C., followed by 20 min incubation on ice. Binding reactions were assembled with 20 μl of binding mix (13 mM Tris pH 8.0, 0.2 mM EDTA, 68.8 mM NaCl, 20% Glycerol, 0.2 mg/ml Yeast tRNA, 4 mM DTT, 4 μl 2500 cpm/μl RNA probe). LNA oligonucleotides were added to binding mix at final concentration of 8 μM and samples were pre-incubated on ice for 10 min. After pre-incubation, binding mix samples were combined with 60 μl of purified protein in dialysis buffer (50 mM Tris pH 7.4, 5 mM MgCl₂, 50 mM NaCl, 1 mM DTT, 10% Glycerol, 4 u/μl Protector RNAse inhibitor (Roche)). Control experiments were performed with dialysis buffer only or control proteins—Flag-GFP or GST-Flag-HA, dissolved in dialysis buffer at the highest protein concentration in the particular experiment. After 30 min on ice, the sample was loaded onto a 5% 37:1 acrylamide (Bio-Rad) gel in 0.5× TBE buffer (45 mM Tris-Borate, 1 mM disodium EDTA) and run for 90 min at 250 V at 4° C. Gels were exposed to phosphorimager screens. For validation of motif sequences, labeled RNA probes were produced with MEGAshortscript™ T7 Transcription Kit (Life Technologies) and gel purified using 15% TBE-urea gels (Life technologies) Similar RNA-EMSA conditions were applied except 8% 37:1 acrylamide (Bio-Rad) gels replaced 5% gels.

Data set [2] deals with T1, CBX7. The experiment in a line: EMSA; low micromolar range, value only in figure; Hill coefficient suggests cooperativity, 2-3 sites; yeast tRNA, Mg2+, on ice; competed by cold Dcaf12l1. Particulars: tags: C-terminal Flag-HA; baculovirus Sf9, anti-FLAG M2 purified; label: radiolabelled. As to the method: as §1

T1 sequence (Q8VDS3 whole entry, one chain of several): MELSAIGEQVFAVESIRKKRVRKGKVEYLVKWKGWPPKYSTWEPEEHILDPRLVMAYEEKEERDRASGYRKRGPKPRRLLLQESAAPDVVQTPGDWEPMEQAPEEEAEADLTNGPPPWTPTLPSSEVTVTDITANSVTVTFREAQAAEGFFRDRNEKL

B1: Calm2 3'UTR EMSA probe (ssRNA)
RNA: GUAGCUUUUAGGAACUGUCAGCAUGUUGUUGUUGAAGUGUGGAGCUGUAACUCUGCGUGGACUGUGGACAGUCAACAAUAUGUACUUAAAAGUUGCACUAUUGCAA
As for B1, the binding result with CBX7 [1] is on record as “binds”; with GFP (control protein), “no binding”.

B2: Dcaf12l1 3'UTR EMSA probe (ssRNA)
RNA: UCAAAUAGAGGAGCUGGGGAUUAAAAAGAUAGGUCUGAUUAAAGGACUGUGCAGUUCAGAUAAAUAGAGAUAAUGGGAUGCCGUGCGGAUAGAUUGGUUUUCUCC
With B2, the binding result with CBX7 [2] is on record as “binds”; with GFP (control protein) it was “no binding”.

B3: Dusp9 3'UTR EMSA probe (ssRNA)
RNA: GGCCACUUUGACUCGUGUAGACUCCUUCCUGCUUCUCUCACUAGGGCUUAGACUUCUUGGAACUGUAGGGUGUGAACCCAGAGAC
In the case of B3, the values for the binding result with CBX7 [1] and in the data set with GFP (control protein) were “binds” and “no binding”, respectively.
